Assays:
[1] = target: T1, CD38 on the surface of Daudi cells (human, UniProt P28907 1-300); assay: flow cytometry on Daudi cells, anti-human IgG-Alexa647, fit in GraphPad Prism
T1 construct: Endogenous CD38 of human B-cell lymphoma Daudi cells; also called naturally conformational CD38 on cell surface; CD38 expressed on Daudi cells
Experimental: Daudi cells were washed twice with PBS and incubated for 1 hour on ice with serially diluted antibodies in FACS buffer (PBS containing 2% FBS) as indicated in table 2. Cells were washed three times with PBS and incubated with 1:200 diluted anti-human IgG-Alexa647 in FACS buffer for 30 min at 4° C. in darkness. After three times wash with PBS, cells were analyzed using flowcytometer.

[2] = target: T1, CD38 on the surface of Daudi cells; assay: cell-based or functional assay
[3] = target: T2, recombinant biotinylated CD38-avi protein (extracellular domain of human CD38) (human, UniProt P28907 43-300, biotinylated (avi tag)); assay: capture ELISA: antibody captured by anti-human Fc, biotinylated CD38-avi 0.5 ug/ml, fit in GraphPad Prism
T2 construct: Bought from ACRO biosystems; also called CD38 recombinant protein; not shown: avi tag
Experimental: After 6 washes, plate was incubated with 1:1000 diluted streptavidin-HRP (BD Bioscience) in PBS™ at RT for 30 min.

Binder	Kd [1] [nM]	CDC IC50 on Daudi cells (ratio of live P1 cells, 7AAD flow cytometry) [2] [nM]	maximal ADCC activity on Daudi cells relative to Darzalex (Jurkat effector, luciferase) [2] [fold]	Kd [3] [nM]	ADCC IC50 on Daudi cells relative to Darzalex (Jurkat effector, luciferase) [2] [fold]
IgG418 full antibody (antibody, V domains shown, also called IgG418 WT; IgG418-WT) VH: QVQLQQSGPGLVKPSQTLSLTCAISGGSVSSNSAAWNWIRQSPSRGLEWLGRTYYRSKWYNDYAVSVKSRITINPDTSKNQFSLQLNSVTPEDTAVYYCARDALAAAGTYGYYYYYGMDVWGQGTMVTVSS VL: QSALTQPASVSGSPGQSITISCTGTSSDVGGYNYVSWYQQHPGKAPKLVIYEGTQRPSGVSSRFSGSKSGNTASLTISGLQAEDEADYYCSSYTSSSFYVFGTGTKLTVLG	3.1	9.8	1.4	0.082	–
afucosylated IgG418 (antibody, V domains shown, afucosylated glycan (produced in FUT8 knockout CHO-K1 cells)) VH: QVQLQQSGPGLVKPSQTLSLTCAISGGSVSSNSAAWNWIRQSPSRGLEWLGRTYYRSKWYNDYAVSVKSRITINPDTSKNQFSLQLNSVTPEDTAVYYCARDALAAAGTYGYYYYYGMDVWGQGTMVTVSS VL: QSALTQPASVSGSPGQSITISCTGTSSDVGGYNYVSWYQQHPGKAPKLVIYEGTQRPSGVSSRFSGSKSGNTASLTISGLQAEDEADYYCSSYTSSSFYVFGTGTKLTVLG	–	–	1.6	–	~10

Reference: US20240228648A1 (JIANGSU KANION PHARMACEUTICAL, published 2024)
